Measurements: patent US20090299038A1 (LIVTECH, published 2009)
Residue numbers refer to the chain shown, from its start. Where “and” joins values, the source holds several entries; their conditions need not be identical. Equal entries are not always repeated.

B1: mouse anti-hDlk-1 monoclonal antibody clone DI-2-14 (antibody, V domains shown)
VH: EVQLQQSGAELVKPGASVKLSCTASGFNIRDTYIHWVKQRPEQGLEWIGRIDPPNGNLKYDPKFQGKATITADTSSNTAYLQFSSLTSEDTAVYYCARSDGYSFAYWGQGTLVTVSA
VL: DIVMTQAAPSVPVTPGESVSISCRSSKSLLHSNGNTYLYWFLQRPGQSPQLLIYRMSNLASGVPDRFSGSGSGTAFTLRISRVEAEDVGVYYCMQHVEYPFTFGSGTKLEIK
notes: also called mouse DI-2-14 antibody; clone DI-2-14 (mouse IgG1)
B2: mouse-human chimeric DI-2-14 antibody (ChDI-2-14) (antibody, V domains shown)
VH: B1 VH
VL: B1 VL
notes: also called DI-2-14 IgG1/κ
B3: humanized anti-hDlk-1 monoclonal antibody HuDI-2-14-1 (antibody, V domains shown)
VH: QVQLVQSGAEVKKPGSSVKVSCKASGFNIRDTYIHWVRQAPGQGLEWIGRIDPPNGNLKYDPKFQGKATITADTSTSTAYMEFSSLRSEDTAVYYCARSDGYSFAYWGQGTLVTVSS
VL: B1 VL with A7S, A8P, P9L, V11L, S18P, V19A, R44K, R79K, S105Q, L109V
notes: also called HuDI-2-14-1 IgG1/κ
B4: humanized anti-hDlk-1 monoclonal antibody HuDI-2-14-2 (antibody, V domains shown)
VH: B3 VH with F83L
VL: B1 VL with A7S, A8P, P9L, V11L, S18P, V19A, R44K, R79K, S105Q, L109V
notes: also called HuDI-2-14-2 IgG1/κ

Assays:
[1] = molecular target: T1, hDlk-1 EGF-like motif deletion mutant EGF (4-6) expressed on COS-7 cells (human, UniProt P80370 131-244); test: FACS of transfected COS-7 cells
T1 construct: also called hdlk-EGF (4-6)/pME18S-CFHX
T1 sequence: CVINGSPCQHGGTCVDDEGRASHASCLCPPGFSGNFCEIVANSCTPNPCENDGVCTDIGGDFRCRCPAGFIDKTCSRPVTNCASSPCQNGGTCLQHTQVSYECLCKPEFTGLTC

[2] = molecular target: T2, hDlk-1 EGF-like motif deletion mutant EGF (5-6) expressed on COS-7 cells (human, UniProt P80370 170-245); test: FACS of transfected COS-7 cells
T2 construct: also called hDlk-1 (EGF 5-6)-pME18-CHFX
T2 sequence: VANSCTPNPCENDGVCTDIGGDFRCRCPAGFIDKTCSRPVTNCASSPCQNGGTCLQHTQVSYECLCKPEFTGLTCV

[3] = molecular target: T3, purified recombinant hFA-1 protein (hDlk-1 extracellular region) (human, UniProt P80370 24-303); test: ELISA method (Djavadi-Ohaniance): antibody 0.5 nM equilibrated with hFA-1 in solution, then added to immobilised hFA-1
T3 construct: also called human FA1; FA-1 region of hDlk-1; not shown: C-terminal Myc tag and His tag from the pcDNA4/Myc-His vector
T3 sequence: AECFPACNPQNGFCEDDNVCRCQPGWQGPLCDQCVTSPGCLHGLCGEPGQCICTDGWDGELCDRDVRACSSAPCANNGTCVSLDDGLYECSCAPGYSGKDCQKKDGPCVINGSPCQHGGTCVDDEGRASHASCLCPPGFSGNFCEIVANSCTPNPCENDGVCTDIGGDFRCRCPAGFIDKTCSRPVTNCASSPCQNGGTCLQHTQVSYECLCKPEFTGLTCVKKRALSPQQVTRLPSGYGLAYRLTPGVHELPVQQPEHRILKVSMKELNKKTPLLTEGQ

[4] = molecular target: T3, purified recombinant hFA-1 protein …; test: ELISA, antibody dilution series on immobilised hFA-1

| Binder | binding result [1] | binding result [2] | Kd [3] | EC50 [4] [mg/L] |
| --- | --- | --- | --- | --- |
| B1 | no binding | no binding | 4.02 nM and 9.26 nM | < 0.01 |
| B2 |  |  | 3.4 nM | < 0.01 |
| B3 |  |  | 2.8 nM | < 0.01 |
| B4 |  |  | 3.1 nM | < 0.01 |
